Reference: the supplement of paper PMC7877785
± gives the uncertainty stated by the source.

Assay: self-splicing fitness, log relative to wild type (ln ratio); higher = more splicing; Tetrahymena group I intron in knt gene, E. coli kanamycin selection, DiMSum; sequences stand for … in CUCUCU…GGAGGGAAAAGUUAUCAGGCAUGCACCUGGUAGCUAGUCUUUAAACCAAUAGAUUGCAUCGGUUUAAAAGGCAAGACCGUCAAAUUGCGGGAAAGGGGUCAACAGCCGUUCAGUACCAAGUCUCAGGGGAAACUUUGAGAUGGCCUUGCAAAGGGUAUGGUAAUAAGCUGACGGACAUGGUCCUAACCACGCAGCCAAGUCCUAAGUCAACAGAUCUUCUGUUGAUAUGGAUGCAGUUCACAGACUAAAUGUCGGUCGGGGAAGAUGUAUUCUUCUCAUAAGAUAUAGUCGGACCUCUCCUUAAUGGGAGCUAGCGGAUGAAGUGAUGCAACACUGGAGCCGCUGGGAACUAAUUUGUAUGCGAAAGUAUAUUGAUUAGUUUUGGAGUACUCGUGGUCG
Procedure, shortened: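 Pooled colonies went to amplicon sequencing on an Illumina HiSeq 2500 after six replicate transformations. The plates were LB agar with 100 μg/mL carbenicillin, 50 μM IPTG and 0.2% rhamnose, with or without 25 μg/mL kanamycin, incubated overnight at 37°C or 30°C. The E. coli BL21(DE3) library had all eight P1ex-region intron nucleotides randomised, the intron placed in the knt kanamycin-resistance gene on pET-22b(+). DiMSum fitness is the error-weighted combination of replicate fold changes, kanamycin against none, normalised to wild type.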

Sequence	self-splicing fitness (ln) (30 °C)	self-splicing fitness (ln) (37 °C)
UUACAGCAAUAUUACGAUAG	-0.427 ± 0.056	0.204 ± 0.07
UUACAGCAAUAUUACGAUCC	-3.16 ± 0.13	-2.28 ± 0.16
UUACAGCAAUAUUACGCGCG	-0.121 ± 0.099	0.0717 ± 0.1
UUACAGCAAUAUUACGCUAG	-0.779 ± 0.11	-0.391 ± 0.11
UUACAGCAAUAUUACGGGGG	-2.2 ± 0.14	-1.77 ± 0.15
UUACAGCAAUAUUACGGUCA	-0.595 ± 0.075	-0.209 ± 0.088
UUACAGCAAUAUUACGGUGA	-1.03 ± 0.099	-0.122 ± 0.14
UUACAGCAAUAUUACGUCAA	-1.14 ± 0.082	-0.187 ± 0.081
UUACAGCAAUAUUACGUCAG	-0.769 ± 0.067	-0.337 ± 0.09
UUACAGCAAUAUUACGUCCG	-1.53 ± 0.089	-0.482 ± 0.14
UUACAGCAAUAUUACGUCUC	-2.98 ± 0.28	-2.3 ± 0.22
UUACAGCAAUAUUACGUUCG	-0.549 ± 0.061	-0.234 ± 0.091
UUACAGCAAUAUUACGUUUU	-3.4 ± 0.11	-0.802 ± 0.092
UUAGAGCAAUAUUACGAGUA	-3.31 ± 0.29	-2.1 ± 0.19
UUAGAGCAAUAUUACGAUCC	-2.97 ± 0.41	
UUAGAGCAAUAUUACGCACA	-0.745 ± 0.08	-0.314 ± 0.11
UUAGAGCAAUAUUACGCACU	-1.24 ± 0.23	-1.78 ± 0.44
UUAGAGCAAUAUUACGCCAA	-0.503 ± 0.16	-0.0692 ± 0.2
UUAGAGCAAUAUUACGCCGG	-0.922 ± 0.19	0.69 ± 0.36
UUAGAGCAAUAUUACGCGUG	-0.924 ± 0.086	0.00533 ± 0.11
UUAGAGCAAUAUUACGCGUU	-2.85 ± 0.17	-1.62 ± 0.17
UUAGAGCAAUAUUACGCUUA	-0.675 ± 0.099	-0.447 ± 0.12
UUAGAGCAAUAUUACGGACG	-1.73 ± 0.15	-0.509 ± 0.29
UUAGAGCAAUAUUACGGAGA	-0.579 ± 0.13	-0.654 ± 0.23
UUAGAGCAAUAUUACGGAGU	-4.12 ± 0.39	-2.9 ± 0.32
UUAGAGCAAUAUUACGGCGA	0.109 ± 0.063	-0.0898 ± 0.074

Sequence	self-splicing fitness (ln) (30 °C)	self-splicing fitness (ln) (37 °C)
UUAGAGCAAUAUUACGGCGC	-2.79 ± 0.24	-0.914 ± 0.25
UUAGAGCAAUAUUACGGGCG	-2.23 ± 0.14	-1.13 ± 0.17
UUAGAGCAAUAUUACGGGGG	-3.04 ± 0.31	-1.79 ± 0.36
UUAGAGCAAUAUUACGGGGU	-2.83 ± 0.3	-2.06 ± 0.46
UUAGAGCAAUAUUACGGGUG	-3.1 ± 0.33	-0.89 ± 0.2
UUAGAGCAAUAUUACGGUAU	-3.84 ± 0.28	-1.36 ± 0.19
UUAGAGCAAUAUUACGGUCG	-1.64 ± 0.19	-0.691 ± 0.31
UUAGAGCAAUAUUACGUAGU	-1.3 ± 0.21	-3.47 ± 0.42
UUAGAGCAAUAUUACGUCCA	-1.31 ± 0.22	-1.71 ± 0.37
UUAGAGCAAUAUUACGUCUC	-3.56 ± 0.25	-2.82 ± 0.34
UUAGAGCAAUAUUACGUCUU	-1.62 ± 0.097	-0.85 ± 0.13
UUAGAGCAAUAUUACGUUCG	-1.22 ± 0.1	-0.767 ± 0.15
UUAUAGCAAUAUUACGAACA	-1.51 ± 0.19	-0.83 ± 0.17
UUAUAGCAAUAUUACGAAUG	-2.43 ± 0.16	-0.727 ± 0.17
UUAUAGCAAUAUUACGACCG	-0.514 ± 0.16	0.446 ± 0.22
UUAUAGCAAUAUUACGAUAA	-0.51 ± 0.11	-0.0656 ± 0.12
UUAUAGCAAUAUUACGCAAG	-1.35 ± 0.16	-1.89 ± 0.19
UUAUAGCAAUAUUACGCACA	-0.698 ± 0.085	0.287 ± 0.084
UUAUAGCAAUAUUACGCCAA		-0.44 ± 0.25
UUAUAGCAAUAUUACGCCUU	-2.91 ± 0.26	-0.144 ± 0.2
UUAUAGCAAUAUUACGCGGC	-2.42 ± 0.49	-2.4 ± 0.37
UUAUAGCAAUAUUACGCUAA	-2.61 ± 0.24	-2.34 ± 0.19
UUAUAGCAAUAUUACGCUCU	-2.68 ± 0.37	-0.705 ± 0.46
UUAUAGCAAUAUUACGGACC	-3.38 ± 0.47	-1.41 ± 0.21
UUAUAGCAAUAUUACGGCGU	-2.88 ± 0.34	-1.7 ± 0.23
UUAUAGCAAUAUUACGGGAG	-2.25 ± 0.25	-1.94 ± 0.31

Sequence	self-splicing fitness (ln) (30 °C)	self-splicing fitness (ln) (37 °C)
UUAUAGCAAUAUUACGGGUG	-1.68 ± 0.1	-0.829 ± 0.12
UUAUAGCAAUAUUACGUACU	-1.49 ± 0.18	-1 ± 0.23
UUAUAGCAAUAUUACGUAGA	-1.34 ± 0.17	-0.707 ± 0.17
UUAUAGCAAUAUUACGUCAG	-1.61 ± 0.13	-0.818 ± 0.12
UUAUAGCAAUAUUACGUUGA	-2.54 ± 0.42	-1.58 ± 0.27
UUCAAGCAAUAUUACGAAAG	-3.65 ± 0.24	-2.39 ± 0.28
UUCAAGCAAUAUUACGAAUG	-4.12 ± 0.24	-2.87 ± 0.27
UUCAAGCAAUAUUACGACCA	-1.48 ± 0.31	-0.352 ± 0.21
UUCAAGCAAUAUUACGACGA	-0.243 ± 0.084	0.213 ± 0.084
UUCAAGCAAUAUUACGAGAU	-3.07 ± 0.19	-2.17 ± 0.18
UUCAAGCAAUAUUACGAGGU	-3.41 ± 0.29	-1.89 ± 0.23
UUCAAGCAAUAUUACGAUGA	-0.963 ± 0.097	0.0199 ± 0.092
UUCAAGCAAUAUUACGAUUC	-2.57 ± 0.15	-2.22 ± 0.19
UUCAAGCAAUAUUACGCAAU	-2.21 ± 0.19	-1.99 ± 0.21
UUCAAGCAAUAUUACGCCUU	-1.8 ± 0.13	-0.968 ± 0.2
UUCAAGCAAUAUUACGCGCA	-0.732 ± 0.13	0.264 ± 0.17
UUCAAGCAAUAUUACGCGCC	-0.923 ± 0.17	-1.38 ± 0.25
UUCAAGCAAUAUUACGCGUU	-2.62 ± 0.12	-0.189 ± 0.09
UUCAAGCAAUAUUACGGCCC	-1.49 ± 0.17	-0.618 ± 0.18
UUCAAGCAAUAUUACGGCGG	-0.903 ± 0.076	-0.416 ± 0.1
UUCAAGCAAUAUUACGGGAU	-3.11 ± 0.13	-1.4 ± 0.14
UUCAAGCAAUAUUACGGGCU	-3.7 ± 0.21	-1.81 ± 0.16
UUCAAGCAAUAUUACGGUAC	-2.8 ± 0.2	-2.71 ± 0.36
UUCAAGCAAUAUUACGGUCG	-0.917 ± 0.1	-0.62 ± 0.13
